Assay results published in publication PMC7218058.
Values belong to the substance of their own block, whether it stands above or below them.

How the values were obtained:
[1] = target: human FcγRIIIa 158Phe, biotinylated (UniProt P08637); assay: SPR; settings: read off a plot
[2] = target: human FcγRIIIa 158Val, biotinylated; assay: SPR; settings: read off a plot
anti-kappa nanobody = assay: cSPR (cellular SPR, opsonized RBCs); settings: density of 1 nM and opsonization concentration of 0.625 μg/ml; parent: est. 610; read off a plot
[3] = target: human FcγRIIIa 158Phe, biotinylated (UniProt P08637); assay: cSPR (cellular SPR, opsonized RBCs); settings: receptor density of 30 nM and opsonization concentration of 0.625 μg/ml; parent: est. 250; read off a plot
[4] = target: human FcγRIIIa 158Val, biotinylated; assay: cSPR (cellular SPR, opsonized RBCs); settings: receptor density of 10 nM and opsonization concentration of 1.25 μg/ml; parent: est. 200; read off a plot
[5] = target: human FcγRIIa 131Arg, biotinylated; assay: cSPR (cellular SPR, opsonized RBCs); settings: receptor density of 30 nM and opsonization concentration of 0.625 μg/ml; parent: est. 210; read off a plot
[6] = target: human FcγRIIa 131His, biotinylated (UniProt P12318); assay: cSPR (cellular SPR, opsonized RBCs); settings: receptor density of 30 nM and opsonization concentration of 2.5 μg/ml; parent: est. 310; read off a plot
Sequence of human FcγRIIa 131His, biotinylated (P12318 34-217): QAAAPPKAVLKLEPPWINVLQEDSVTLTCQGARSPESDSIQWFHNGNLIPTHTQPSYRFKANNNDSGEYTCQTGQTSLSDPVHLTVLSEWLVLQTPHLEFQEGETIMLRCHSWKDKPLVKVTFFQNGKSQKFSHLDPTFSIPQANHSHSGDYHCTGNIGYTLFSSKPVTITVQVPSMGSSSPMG

[7] = target: human FcγRIIIa 158Phe, biotinylated (UniProt P08637); assay: SPR; IBIS MX96; biotinylated human FcγR spotted on a SensEye G-Streptavidin sensor at 1, 3, 10 and 30 nM; 2-fold dilution series of IgG (0.49 to 1000 nM) flowed over; Kd by equilibrium fitting, interpolated to Rmax 500
[8] = target: human FcγRIIIa 158Val, biotinylated (human); assay: as above

Sequence of human FcγRIIIa 158Phe, biotinylated (P08637 17-208): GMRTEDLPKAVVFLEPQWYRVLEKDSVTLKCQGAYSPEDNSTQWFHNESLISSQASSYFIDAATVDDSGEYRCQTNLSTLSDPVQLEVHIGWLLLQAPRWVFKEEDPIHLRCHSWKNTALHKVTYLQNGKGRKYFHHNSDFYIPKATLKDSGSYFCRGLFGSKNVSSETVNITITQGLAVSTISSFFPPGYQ

Substance: anti-RhD IgG3 allotype IGHG3*01 R292W
- Kd ([1]; parent: est. 8.1e-7): 1900 nM
- Kd ([2]; parent: est. 1.7e-7): 340 nM

Substance: anti-RhD IgG3 allotype IGHG3*12 F296Y; P291L
- Kd ([2]; parent: est. 2.5e-7): 210 nM
- other: avidity (AUC) (anti-kappa nanobody): 640
- other: avidity (AUC) [3]: 50
- other: avidity (AUC) [4]: 55
- other: avidity (AUC) [5]: 11
- other: avidity (AUC) [6]: 45

Substance: anti-RhD IgG3 allotype IGHG3*17 R292H
- Kd ([1]; parent: est. 9.2e-7): 810 nM
- Kd ([2]; parent: est. 2.1e-7): 200 nM

Substance: anti-RhD IgG3 allotype IGHG3*17 R292L
- Kd ([1]; parent: est. 9.2e-7): 860 nM
- Kd ([2]; parent: est. 2.1e-7): 210 nM

Substance: anti-RhD IgG3 allotype IGHG3*18 (antibody)
- fold reduction of affinity against other IgG3 allotypes [7]: 3 fold
- fold reduction of affinity against other IgG3 allotypes [8]: 3 fold

Other lines, results leading:

- Kd ([1]; parent: est. 1.5e-6): 4400 nM
- Kd ([2]; parent: est. 2.7e-7): 470 nM
Substance: anti-RhD IgG1 allotype IGHG1*03 R292W

- Kd ([1]; parent: est. 9.2e-7): 860 nM
- Kd ([2]; parent: est. 2.1e-7): 220 nM
Substance: anti-RhD IgG3 allotype IGHG3*17 R292A

- Kd ([1]; parent: est. 9.2e-7): 2700 nM
- Kd ([2]; parent: est. 2.1e-7): 580 nM
Substance: anti-RhD IgG3 allotype IGHG3*17 R292E

- Kd ([1]; parent: est. 9.2e-7): 2800 nM
- Kd ([2]; parent: est. 2.1e-7): 540 nM
Substance: anti-RhD IgG3 allotype IGHG3*17 R292W

- Kd ([1]; parent: est. 2.6e-6): 880 nM
- Kd ([2]; parent: est. 5.4e-7): 210 nM
Substance: anti-RhD IgG3 allotype IGHG3*18 W292R

- fold reduction of affinity against other IgG3 allotypes [7]: 3 fold
- fold reduction of affinity against other IgG3 allotypes [8]: 3 fold
Substance: anti-RhD IgG3 allotype IGHG3*19 (antibody)
